How the values were obtained:
Assay in all cases: SEC-MALS + native gel or EMSA; static light scattering (DynaPro, Wyatt) after Superdex 200, 100 uL at >1 mg/mL in 10 mM PBS pH 7.4, flow 0.45 mL/min, LS, UV and dRI detection; 10% native-PAGE, 1 umol protein loaded; oligomeric state in solution
[1] = target: rFIP-nha N39A glycosylation mutant, expressed in P. pastoris (Nectria haematococca)
[2] = target: rFIP-nha N5A glycosylation mutant, expressed in P. pastoris (Nectria haematococca)
[3] = target: rFIP-nha wild-type (fungal immunomodulatory protein from Nectria haematococca), expressed in P. pastoris (Nectria haematococca)
[4] = target: rFIP-nha N5+39A double glycosylation mutant, expressed in P. pastoris (Nectria haematococca)

Q: With “rFIP-nha N39A glycosylation mutant, expressed in P. pastoris (natural protein)” as the substance, how does the stoichiometry N [1] read?
A: 4

Q: With “rFIP-nha N5A glycosylation mutant, expressed in P. pastoris (natural protein)” as the substance, how does the stoichiometry N [2] read?
A: 4

Q: For “rFIP-nha wild-type (fungal immunomodulatory protein from Nectria haematococca), expressed in P. pastoris (natural protein)”, which stoichiometry N [3] is on record?
A: 4

Q: How did the stoichiometry N [4] turn out when “rFIP-nha N5+39A double glycosylation mutant, expressed in P. pastoris (natural protein)” was run?
A: 4

Reference: article PMC10490071
